Source: the DeepSol protein solubility set

Test: soluble on expression in E. coli; label from the status in PepcDB or PDB records

Sequence | soluble on expression in E. coli
MSGEEKEKVKILHVANISTSATRDHIYNMFNYLGKIQDLKVYPSEGNITANTLLKTAFIKFDDERCVEVAQHLTNTVVIDCAIVCLPYPNPVIPDEESFFNSGGSTTAGQRQLPPHVTNKIQESDDGSALLITVDPTLEQLGLPAYPPLPADTDSAKVEEIRRTVYVGNLPKGVDGNEVLELFNMYFGEVMYARMASGPDALPCAYAYVEFSQQASVCNALQNDGFEFKERPLKIQHSRVAIIKPQAKTDEQALGEIEEAIRMGRNGDDRDRRRSRSPRRRRSPSPRRRRDSRDRDRDRDRDRRRSRDRRSRSRDRDRDRDRKRSRSRDRKRRSRSRDNKDRDRKRSRSRDRRRRSKSRDRKRERSRSRSKDRKRDKKRSRSRSPEKRRDKEDRKTEKKENENESSLREKLLEKKAARKDSSDDEWEEKPTPTNGEVKNEEIGNGDVVMASE | soluble
MGSDKIHHHHHHMTAGRIRIDEVIKDGEKIIAVSRTSPFYPDGKGGQLGDRGKIGPANVLKVKEKNGYILHYLDAHLEPGDYECEIDPARRKDIACQHTAQHILSAAFLKVADLETVSFHMGERVSTIDLNAPFVLEDVLEEAEDLANEVVRSCERVEILEIEKEEAEKMNLRKLPNVEGKVRVVKIGDFDVTACGGFHVENTGEIGLIKIVDTEKVKKVLTRIYFTAGDRALKDYREKDKLLKSLSRVLTTSTKELLKRAENLLEEVKEKSAKLDKLSEKYAEILSKVAEPEKVGKYYLYHFSGTPEEMKYLPKFLADRKDTIVLLEHPDRIEIVSNWIDCRKIFEKLKDQLNVEGGSSQKRAVITANSASRIVEKLREILKWF | not soluble
MGSDKIHHHHHHMPTIHLIDGEKGGVGKSLVARTMIQYCLDNNMPFVPVETDRSNPDVAGVYKGICQYAVFTEDERHADKADKIFEIAMNKTVIANLAAQSHRAVKGWIEKNHLIELGESQGVDFCKWFVSTGGYDSLNLFKQSVNSYGGKVPHILVKNLGLCDDWEHVNSDATIQEVVKKYNVKAIDFPKLAYKERNIIDQHRLTFADAREYKEFGIISKQRVVNFLKLAYASFETVGIWYEEVK | not soluble
MSLTMREVAKAAGVSIKTVSNVVNDYEFVSQATRDKVNKAIAELGYTVNVSARNLRRGQTGIIGLAIPDLQMPYFAQLSSLVIEEAKKVGLRVIVEPTQYSRDGELEALHGSQQMMIDGLIYSPLELGQDDVEQLKVDYPLVLVGERIFTDQVDHIATENVEGAKRATQYLLTTGCRRVAVVGVHPGEKVGSAALRYQGYLEALEEAGVEFDDRLVVESGMWHRSDGVRAMNALLDSGVEVDGVVALNDMLASGVMHAIQMHGLHIPDDISVVGFDNSDDSQYLSPALTSIAPGLEAVARLSVKVLKERIDGRDPNADRPGEKVFRKVASSLVVRQSTEGHHHHHH | soluble
MDKFRVQGPTKLQGEVTISGAKNAALPILFAALLAEEPVEIQNVPKLKDVDTSMKLLSQLGAKVERDGSVHIDARDVNVFCAPYDLVKTMRASIWALGPLVARFGQGQVSLPGGCTIGARPVDLHISGLEQLGATIKLEEGYVKASVDGRLKGAHIVMDKVSVGATVTIMCAATLAEGTTIIENAAREPEIVDTANFLITLGAKISGQGTDRIVIEGVERLGGGVYRVLPDRIETGTFLVAAAISRGKIICRNAQPDTLDAVLAKLRDAGADIEVGEDWISLDMHGKRPKAVNVRTAPHPAFPTDMQAQFTLLNLVAEGTGFITETVFENRFMHVPELSRMGAHAEIESNTVICHGVEKLSGAQVMATDLRASASLVLAGCIAEGTTVVDRIYHIDRGYERIEDKLRALGANIERVKGELVPR | soluble
MDQECIENYAKVNGIYIYYKLCKAPEEKAKLMTMHGGPGMSHDYLLSLRDMTKEGITVLFYDQFGCGRSEEPDQSKFTIDYGVEEAEALRSKLFGNEKVFLMGSSYGGALALAYAVKYQDHLKGLIVSGGLSSVPLTVKEMNRLIDELPAKYRDAIKKYGSSGSYENPEYQEAVNYFYHQHLLRSEDWPPEVLKSLEYAERRNVYRIMNGPNQFTITGTIKDWDITDKISAIKIPTLITVGEYDEVTPNVARVIHEKIAGSELHVFRDCSHLTMWEDREGYNKLLSDFILKHL | soluble
MSVTVDDKDVSLNMIRPFEILTLPIPAGVAGKSLVWRFINDYGAISQPLKKNL | not soluble
SLANIREIAKRAGISIATVSRHLNNTGYVSEDAREKIQKVVDELNYTPNALARAMFTKNSKTIGLMVPNISNPFFNQMASVIEEYAKNKGYTLFLCNTDDDKEKEKTYLEVLQSHRVAGIIASRSQCEDEYANIDIPVVAFENHILDNIITISSDNYNGGRMAFDHLYEKGCRKILHIKGPEVFEATELRYKGFLDGARAKDLEIDFIEFQHDFQVKMLEEDINSMKDIVNYDGIFVFNDIAAATVMRALKKRGVSIPQEVQIIGFDNSFIGELLYPSLTTINQPIEALAYTIIELLIKIINGEGVLIEDYIMEVKLIERETTISLKDEG | soluble
MSLGIVIYGTRIIYPAEHKEVMVQLMNQGNRSSLMQAWIDDGDTSLPPEKIQVPFMLTPPVAKIGANSGQQVKIKIMPNKLPTNKESIFYLNVLDIPPNSPEQEGKNALKFAMQNRIKLFYRPAGIAPVNKVTFKKLLVNRSGNGLVIKNDSANWVTISDVKANNVKVNYETIMIAPLESQSVNVKSNNANNWHLTIIDDHGNYISDKEGHHHHHH | soluble
MFRTAETSRDTLITTAYRLHRTRWRILEPYRRLKNALKKLQEDYLKSKEANALMRYVKLGQSVREVAMLEKQYWKLLNIPAQEGTEDANCYVVKIIELLEDTPTQLPPTRGIGALLQSTIGKPAEANVDTVLHDSLKARKSEDLVKECEGLYAQLYRLTKKYLGLRRLIKELHDKYEATRMFPIVPRYAMLKKMIKATLRAPEFADICHEQTE | not soluble
NRGIEFSGGRNYVVKFDQPVSSEAVRSALSSPLQEKVLVTSIGTEGTEVRISTNYKIQEESEETEAEITDKLYQSLKGFYTQQPTADQFLDNIISSQKVSPSMSSDITRGA | not soluble
VLPHARKVARETGIPEHFMIAQAALETGWGRHQIRRADNQPSFNLFGIKASGNWRGGVVETVTTEYVDGKPQKLREKFRTYDSYEDAFRDYAKLLQNNPRYAAVLKSRSATAFAWGLQQAGYATDPSYAEKLLKIINSDALSI | not soluble
MSLNRNHPANGWPLALLLAATLALHGCNEPTAATAAPANTTRHGDYTPLTVQHKLGTTVISQLPQRTVALDMNEVDFLDQLGVPVAGMPKDFVPDFLARYKDAGQTADVGSIVQPNLERVHAARPDLILITSLQANHYDELSEMAPTLHFDVDYRDSETGHVAMVRQHLLSLGQVFGKQGLAQRKADALEAKLAQARSVTRDRPERALVVLHNNGAFSAFGVQSRYGFIFNDLGVKPATTTLDTGLHGQPISSEFIQQANPDILYVVDRTAVMEHRPMMTADTLDNPLLRQTNAWKHGRVVFVDPQAWYVTAASPTSLALIADDVIRGYQDEGHHHHHH | soluble
MSTIAKDQTQINDKIRAKELRLIGQDGEQIGVKSKREALEMAERVDLDLVVVAPNAKPPVARIMDYGKFKFEQQKKEKEMKKKQKIINVKEIRLSPTIEEHDFQTKLKNGRKFLTKGDKCKVSIRFRGRAITHKEIGQRVLEKYADECKDIATVEQKPKMDGRQMFIMLAPTAEK | not soluble
MKEHSIDIQLSHPDDLFHLFGSNERHLRLMEEELDVVIHARTEIVQVLGEESACEEARQVIQALMVLVNRGMTVGTPDVVTAISMVKNDEIDKFVALYEEEIIKDNTGKPIRVKTLGQKLYVDSVKQHDVTFGIGPAGTGKTFLAVTLAVTALKRGQVKRIILTRPAVEAGESLGFLPGDLKEKVDPYLRPVYDALYQILGKDQTTRLMEREIIEIAPLAYMRGRTLDDAFVILDEAQNTTIMQMKMFLTRLGFHSKMIVNGDISQIDLPRNVKSGLIDAQEKLKNIHQIDFVHFSAKDVVRHPVVAQIIRAYEYSTEVAHD | not soluble
